Usually Kd stands for the constant that tells how readily two partners part at equilibrium.

Test [1] deals with VEGFR2 recombinant protein, intracellular domain (aa 789 to end) (UniProt P35968). Nature of the test: far-Western, overlay or dot blot; 0.5 to 8.0 ug VEGFR2 (aa 789 to end) on SDS-PAGE, transferred to PVDF; overlaid with V5-tagged L-FABP (1 ug/ml) for 12 hours; anti-V5 detection; Kd by non-linear regression (GraphPad Prism 5).
The target of test [2] is VEGFR2 (Homo sapiens) (UniProt P35968). Nature of the test: ITC. Particulars: cited from earlier work.
Test [3] shares this target. The experiment in a line: SPR. Particulars: cited from earlier work.

Regarding “Liver fatty acid-binding protein (L-FABP), V5-tagged recombinant protein expressed in Hus cells (from UniProt P07148 1-127) (natural protein)”, the Kd in test [1] is 0.25 nM.

Turning to VEGF-A (from UniProt P15692), the Kd in the test with VEGFR2 (Homo sapiens) [2] is 18 nM; with VEGFR2 (Homo sapiens) [3], 36.7 nM.

The values above are taken from article PMC4951284.
